Source: publication PMC4141020 (Traffic (Copenhagen, Denmark), 2014)

Target: T1, Mpl expressed as an mKO2 fusion protein (Mpl^mKO2) (human, UniProt P40238 26-635)
T1 sequence (looked up): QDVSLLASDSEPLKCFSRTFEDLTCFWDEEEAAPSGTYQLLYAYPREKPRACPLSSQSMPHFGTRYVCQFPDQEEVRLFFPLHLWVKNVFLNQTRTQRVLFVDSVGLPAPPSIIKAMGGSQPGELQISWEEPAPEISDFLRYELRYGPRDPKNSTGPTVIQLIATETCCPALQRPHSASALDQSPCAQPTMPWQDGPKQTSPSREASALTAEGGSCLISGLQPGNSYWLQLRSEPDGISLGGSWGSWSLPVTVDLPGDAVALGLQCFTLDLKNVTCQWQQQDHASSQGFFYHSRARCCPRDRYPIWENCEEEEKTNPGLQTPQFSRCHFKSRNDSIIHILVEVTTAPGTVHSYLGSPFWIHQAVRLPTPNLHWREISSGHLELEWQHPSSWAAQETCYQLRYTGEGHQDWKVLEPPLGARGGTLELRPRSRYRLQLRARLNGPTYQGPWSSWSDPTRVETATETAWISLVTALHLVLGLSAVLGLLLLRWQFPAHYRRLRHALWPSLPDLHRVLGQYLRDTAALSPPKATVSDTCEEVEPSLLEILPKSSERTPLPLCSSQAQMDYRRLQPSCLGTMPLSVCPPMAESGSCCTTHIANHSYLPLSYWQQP
Test: co-IP

fold more co-immunoprecipitated than Jak2V617F with endogenous Mpl in HEL cells: ~8 fold
B1: Jak2WT (endogenous wildtype Jak2 of K562 cells) (enzyme, human (endogenous in K562), UniProt O60674 1-1132, looked up)
chain: MGMACLTMTEMEGTSTSSIYQNGDISGNANSMKQIDPVLQVYLYHSLGKSEADYLTFPSGEYVAEEICIAASKACGITPVYHNMFALMSETERIWYPPNHVFHIDESTRHNVLYRIRFYFPRWYCSGSNRAYRHGISRGAEAPLLDDFVMSYLFAQWRHDFVHGWIKVPVTHETQEECLGMAVLDMMRIAKENDQTPLAIYNSISYKTFLPKCIRAKIQDYHILTRKRIRYRFRRFIQQFSQCKATARNLKLKYLINLETLQSAFYTEKFEVKEPGSGPSGEEIFATIIITGNGGIQWSRGKHKESETLTEQDLQLYCDFPNIIDVSIKQANQEGSNESRVVTIHKQDGKNLEIELSSLREALSFVSLIDGYYRLTADAHHYLCKEVAPPAVLENIQSNCHGPISMDFAISKLKKAGNQTGLYVLRCSPKDFNKYFLTFAVERENVIEYKHCLITKNENEEYNLSGTKKNFSSLKDLLNCYQMETVRSDNIIFQFTKCCPPKPKDKSNLLVFRTNGVSDVPTSPTLQRPTHMNQMVFHKIRNEDLIFNESLGQGTFTKIFKGVRREVGDYGQLHETEVLLKVLDKAHRNYSESFFEAASMMSKLSHKHLVLNYGVCVCGDENILVQEFVKFGSLDTYLKKNKNCINILWKLEVAKQLAWAMHFLEENTLIHGNVCAKNILLIREEDRKTGNPPFIKLSDPGISITVLPKDILQERIPWVPPECIENPKNLNLATDKWSFGTTLWEICSGGDKPLSALDSQRKLQFYEDRHQLPAPKWAELANLINNCMDYEPDFRPSFRAIIRDLNSLFTPDYELLTENDMLPNMRIGALGFSGAFEDRDPTQFEERHLKFLQQLGKGNFGSVEMCRYDPLQDNTGEVVAVKKLQHSTEEHLRDFEREIEILKSLQHDNIVKYKGVCYSAGRRNLKLIMEYLPYGSLRDYLQKHKERIDHIKLLQYTSQICKGMEYLGTKRYIHRDLATRNILVENENRVKIGDFGLTKVLPQDKEYYKVKEPGESPIFWYAPESLTESKFSVASDVWSFGVVLYELFTYIEKSKSPPAEFMRMIGNDKQGQMIVFHLIELLKNNGRLPRPDGCPDEIYMIMTECWNNNVNQRPSFRDLALRVDQIRDNMAG
